# According to patent US20070009938:
# Key:
# Assay in all cases: EMSA
# [1] = test system: wt bZIP (GCN4 basic region - C/EBP leucine zipper hybrid), synthetic (artificial (yeast GCN4 / C/EBP))
# [2] = biological target: 4A alanine mutant bZIP (GCN4 basic region - C/EBP zipper) (artificial (yeast GCN4 / C/EBP)) (UniProt P03069); conditions: group statement
# [3] = biological target: 11A alanine mutant bZIP (GCN4 basic region - C/EBP zipper) (artificial (yeast GCN4 / C/EBP)) (UniProt P03069); conditions: group statement
# [4] = biological target: 18A alanine mutant bZIP (GCN4 basic region - C/EBP zipper) (artificial (yeast GCN4 / C/EBP)) (UniProt P03069); conditions: group statement
# [5] = test system: wt bZIP (GCN4 basic region - C/EBP leucine zipper hybrid), expressed (artificial (yeast GCN4 / C/EBP))
# [6] = higher-order bandshifts excluded
# [7] = also DNase I footprinting (p65)
sequence,measurement,setting,value
TGCAGGAATCACGTGATGAAGGTT (double strand) [Arnt E-box],Kd,[1]; saturation not achieved,570 nM
same,binding signal (fold weaker than AP-1),[2]; both E-box sites,10
same,binding signal (fold weaker than AP-1),[3]; both E-box sites,10
same,binding signal (fold weaker than AP-1),[4]; both E-box sites,10
TGCAGGAATTGCTGAAGGTT (double strand) [C/EBP half site],Kd,[5]; saturation not achieved,> 1500 nM
same,Kd,[1]; saturation not achieved,> 5000 nM
TGCAGGAATGACTGAAGGTT (double strand) [AP-1 half site],Kd,[5]; [6],23 nM
same,Kd,"[1]; apparent monomeric Kd, pH 7.5",84 nM
TGCAGGAATGACGTCATGAAGGTT (double strand) [CRE],Kd,"[1]; apparent monomeric Kd, pH 7.5",12 nM
TGCAGGAATGACTCATTGAAGGTT (double strand) [AP-1],Kd,"[5]; higher-order bandshifts excluded, FIG. 6 legend gives 568 nM for wt bZIP with AP-1 in another experiment (TKMC buffer)",4.8 nM
same,Kd,"[1]; apparent monomeric Kd, pH 7.5",13 nM
TGCAGGAATCACTGAAGGTT (double strand) [Arnt E-box half site],Kd,[1]; saturation not achieved,> 4000 nM
TGCAGGAAGCACGTAGTGAAGGTT (double strand) [HRE],Kd,[1]; saturation not achieved,1400 nM
same,binding signal (fold weaker than AP-1),[2]; [7],7
same,binding signal (fold weaker than AP-1),[3]; [7],7
same,binding signal (fold weaker than AP-1),[4]; [7],7
TGCAGGAAGACTAACCTGAAGGTT (double strand) [Partial site / NON2],Kd,"[1]; apparent monomeric Kd, pH 7.5",280 nM
TGCAGGAATTGCGTGATGAAGGTT (double strand) [XRE1],Kd,"[1]; apparent monomeric Kd, pH 7.5",240 nM
same,binding signal (fold weaker than AP-1),[2]; [7],7
same,binding signal (fold weaker than AP-1),[3]; [7],7
same,binding signal (fold weaker than AP-1),[4]; [7],7
GATCTGGATGACTCATTTTTTTTT (double strand) [WT AP-1 (his3 flanks)],Kd,"[1]; apparent monomeric Kd, 2 mM MgCl2, 1 mM CaCl2, pH 7.5, 200 mM guanidine HCl",13 nM
TGCAGGAATTGCGCAATGAAGGTT (double strand) [C/EBP],Kd,[5]; [6],29 nM
same,Kd,"[1]; apparent monomeric Kd, pH 7.5",120 nM
same,binding signal (fold weaker than AP-1),[2]; [7],3
same,binding signal (fold weaker than AP-1),[3]; [7],3
same,binding signal (fold weaker than AP-1),[4]; [7],3
TGCAGGAACCACGTGGTGAAGGTT (double strand) [Max E-box],Kd,[1]; saturation not achieved,840 nM
same,binding signal (fold weaker than AP-1),[2]; both E-box sites,10
same,binding signal (fold weaker than AP-1),[3]; both E-box sites,10
same,binding signal (fold weaker than AP-1),[4]; both E-box sites,10
